Results: US7419813B2, “Fructosyl peptide oxidase” (Kikkoman Corporation, priority 2001, dated 2008)

Tests used:
[1] = Enzyme activity assay, ε-fructosyl lysine substrate; type: biochemical; settings: for Substrate specificity (% relative activity) εFL: crude enzyme sample; for relative activity for ε-fructosyl lysine: purified oxidase, compared to 100% activity for fructosyl valyl histidine
From the text: Enzyme activities of the oxidase of the invention and the oxidase of the invention that have less action on ε-fructosyl lysine (hereinafter, the term “the oxidases of the invention” may comprise both the oxidase of the invention and the oxidase of the invention that have less action on ε-fructosyl lysine) may principally be determined by determining the amount of α-ketoaldehyde, peptide, hydrogen peroxide or the like which are produced through enzyme reaction or by determining the amount of oxygen consumed by the enzyme reaction. Hereinafter, a method for determining the amount of hydrogen peroxide will be described as one example. Unless otherwise noted, fructosyl valyl histidine is used as a substrate for determining the activities of the oxidases of the invention. Titer of the enzyme is defined such that an amount of enzyme for producing 1 μmol hydrogen peroxide per minute is 1U as determined using a fructosyl valyl histidine substrate. 624 mg of fructosyl valyl histidine is dissolved in ion exchange water to a constant volume of 10 ml. Alternatively, fructosyl glycine or ε-fructosyl lysine of 357 mg or 462 mg, respectively, may be dissolved in ion exchange water to a constant volume of 10 ml to be used as a substrate. Fructosyl valine histidine was prepared as described in Japanese Patent Application Laid-Open (kohyo) No. 2001-95598. Fructosyl glycine and ε-fructosyl lysine were prepared according to a method of Horiuchi et al. (Agric. Biol. Chem., 53, 103-110, 1989; Agric. Biol. Chem., 55, 333-338, 1991). 2.7 ml of Reagent 1, 100 μl of Reagent 2 and 100 μl of enzyme solution are mixed and pre-heated at 30° C. for 5 minutes. Then, 100 μl of Reagent 3 is added and thoroughly mixed to determine absorbance at 510 nm using a spectrophotometer (U-[…], Hitachi, Ltd.). Measurement values indicate changes in the absorbance per minute at 510 nm after 1 to 3 minutes. A control solution was prepared in the same manner as described above except 100 μl ion exchange water was added instead of 100 μl Reagent 3. A standard solution of hydrogen peroxide and ion exchange water were used instead of Reagent 3 and the enzyme solution, respectively, to prepare a graph showing relationship with respect to the level of color. Referring to this graph, micromole of hydrogen peroxide produced per minute at 30° C. is calculated and used as the unit for expressing the activity of the enzyme solution. The presence of action on ε-fructosyl lysine can be determined in the same manner by using Reagent 3 (substrate solution) containing ε-fructosyl lysine substrate instead of fructosyl valyl histidine substrate.

[2] = type: physicochemical; settings: for pH of maximum remaining activity: 10 min; for stable pH range: purified oxidase, 30° C. for 10 minutes, remaining activities of 70% (Eupenicillium 60%) or higher
Protocol: For example, 200 mM acetic acid buffer (pH 3.0-6.0), 200 mM MES-NaOH (pH 6.0-7.0), 200 mM Tris buffer (pH 6.8-9.0), 200 mM potassium phosphate buffer (pH 6.5-8.0) and 200 mM glycine buffer (pH 8.0-12.0) are used as buffers to perform enzyme reactions at the indicated pH at 30° C. for 10 minutes, thereby determining the remaining activities of the oxidases of the invention. For example, the oxidases of the invention may have a stable pH at 5.0-10.0, preferably at 6.0-9.0. For example, 200 mM acetic acid buffer (pH 3.0-6.0), 200 mM MES-NaOH (pH 6.0-7.0), 200 mM Tris buffer (pH 6.8-9.0), 200 mM potassium phosphate buffer (pH 6.5-8.0) and 200 mM glycine buffer (pH 8.0-12.0) are used as buffers to perform enzyme reactions at the indicated pH at 30° C. for 10 minutes, thereby determining the remaining activities of the oxidases of the invention. For example, the oxidases of the invention that have less action on ε-fructosyl lysine may have a stable pH range at 5.0-10.0, preferably at 6.0-9.0. The inventive oxidase was treated with 200 mM acetic acid buffer (pH 3.0-6.0), 200 mM MES-NaOH (pH 6.0-7.0), 200 mM Tris buffer (pH 6.8-9.0), 200 mM potassium phosphate buffer (pH 6.5-8.0) or 200 mM glycine buffer (pH 8.0-12.0) at the indicated pH values at 30° C. for 10 minutes, and its remaining activity was determined. […] The inventive oxidase was treated with 200 mM acetic acid buffer (pH 3.0-6.0), 200 mM MES-NaOH (pH 6.0-7.0), 200 mM Tris buffer (pH 7.0-8.5), 200 mM potassium phosphate buffer (pH 6.0-8.0) or 200 mM glycine buffer (pH 8.0-12.0) at the indicated pH values at 30° C. for 10 minutes, and the remaining activity thereof was monitored.

[3] = Reaction with products obtained by digesting α-glycated hexapeptide with protease (96-well plate, 510 nm); type: biochemical; settings: purified enzyme; compared to 100% activity for fructosyl glycine; monitored at 510 nm for 70 minutes
From the text: Glycated hemoglobin (HbA1c) may be treated with endoproteinase Glu-C to liberate α-glycated hexapeptide (fructosyl Val-His-Leu-Thr-Pro-Glu) from the glycated hemoglobin β-chain (Clin. Chem., 43; 10 1944-1951, 1997). Fructosyl Val-His-Leu-Thr-Pro-Glu (available from PEPTIDE INSTITUTE, INC), which is the same substance as the α-glycated hexapeptide, was used in the following experiment.
α-glycated hexapeptide (fructosyl Val-His-Leu-Thr-Pro-Glu, MW=856, available from PEPTIDE INSTITUTE, INC) (3.434 mg) was dissolved in 0.2 ml of water.
Molsin (15 mg, available from Kikkoman Corp.) was dissolved in 0.2 ml of buffer (10 mM acetate buffer, pH 3.0)
A (100 μl), B (5 μl) and C (5 μl) were mixed in a microtube and incubated at 37° C. for 17 hours. The reaction solution was then filtered using Microcon 10 (available from Amicon) to remove protease.
Developer solution consisted of the following materials:
• (a) Enzyme purified from Achaetomiella virescens ATCC 32393 • (b) Enzyme purified from Eupenicillium terrenum ATCC 18547 • (c) Enzyme purified from Coniochaeta sp. […]
Reaction substrate (D: a, b) (20 μl), developer solution (E) (20 μl) and the inventive oxidase (F: a-d) (10 μl) were mixed in 96-well assay plates for reaction. Each plate was monitored at 510 nm using a plate reader (Immuno Mini NJ-2300, available from Nalge Nunc International K. K.) for 70 minutes. […]

[4] = reference substrate set to 100%

B1: Eupenicillium terrenum ATCC 18547: fructosyl peptide oxidase produced by Eupenicillium terrenum ATCC 18547 with less action on ε-fructosyl lysine; amino acid sequence SEQ ID NO: 3 (protein, listed as Eupenicillium terrenum)
chain: MAHSRASTKVVVVGGGGTIGSSTALHLIRSGYTPSNITVLDVYKTPSLQSAGHDLNKIMGIRLRNGPDLQLSLESLDMWQNDELFKPFFHQVGMIDCSSSKEGIENLRRKYQTLLDAGIGLEKTNVWLESEDEILAKAPNFTREQVKGWKGLFCTDGGWLAAAKAINAIGIFLQDKGVKFGFGGAGTFQQPLFAADGKTCIGLETTDGTKYFADKVVLAAGAWSPTLVDLEDQCVSKAWVFAHIQLTPKEADAYKNVPVVYDGEYGFFFEPNEYGVIKVCDEFPGFSRFKLHQPYGAASPKMISVPRSHAKHPTDTYPDASEVTIRKAIARFLPEFKDKELFNRTMCWCTDTADANLLICEHPKWKNFILATGDSGHSFKLLPNIGKHVVELLEGSLSQEMAGAWRWRPGGDALRSRRGAPAKDLAEMPGWKHDAHL
In the case of B1, the “Substrate specificity (% relative activity) εFL” value [1, 4] is reported as 100%, the “Substrate specificity (% relative activity) εFL” value ([1]; relative to activity for fructosyl valyl histidine (100%)) is reported as 9.78% and the “relative activity for ε-fructosyl lysine” value [1] is reported as 9.78%. The “pH of maximum remaining activity” value [2] was 8.0 pH, the “stable pH range” value [2] was 6.0-9.0 pH and the “% relative activity on protease-digested α-glycated hexapeptide” value [3] was 9.5%.

B2: Coniochaeta sp. NISL 9330: fructosyl peptide oxidase produced by Coniochaeta sp. NISL 9330 (FERM BP-7798) with less action on ε-fructosyl lysine; amino acid sequence SEQ ID NO: 1 (protein, listed as Coniochaeta sp.)
chain: MTSNRADTRVIVVGGGGTIGSSTALHLVRSGYAPANITVLDTFEIPSAQSAGHDLNKIMGIRLRNKVDLQMSLEARQMWKEDELFQPFFHNTGRMDCEHTPEGIEDLKKQYQALHDAGAGLEKTHAWLDNEDEILSKMPLLQRDQIQGWKAIWSQDGGWLAAAKAINAIGQFLKERGVKFGFGGAGSFKQPLFDDEGTTCIGVETADGTKYYADKVVLAAGAWSPTLVDLEDQCCSKAWVYAHIQLTPEEAAEYKGVPVVYNGEFGFFFEPNEFGVIKVCDEFPGFSRFKEHQPYGAPSPKHISVPRSHAKHPTDTYPDASEVSIKKAIATFLPRFQDKELFNRALCWCTDTADAALLMCEHPKWKNFILATGDSGHSFKILPNVGKHVVELIEGRLPEEMAYQWRWRPGGDALKSRRAAPPKDLADMPGWKHDPKL
For B2, the “Substrate specificity (% relative activity) εFL” value [1, 4] was 100%, the “relative activity for ε-fructosyl lysine” value [1] was 61% and the “pH of maximum remaining activity” value [2] was ~7.0 pH. For the same molecule, the “stable pH range” value [2] was 5.0-9.0 pH and the “% relative activity on protease-digested α-glycated hexapeptide” value [3] was 10.0%.
